Data on 3 substances can be found in article PMC3744345.

For assay [1], the target named is recombinant extracellular domain of sortilin (UniProt Q99523). Put plainly: SPR. (Surface plasmon resonance follows binding to a sensor surface in real time, without labels.)
Assay [2] concerns the target amyloid-β (Homo sapiens) (UniProt P05067). The settings on record: cited from earlier work.

Chain of recombinant extracellular domain of sortilin (Q99523 78-755): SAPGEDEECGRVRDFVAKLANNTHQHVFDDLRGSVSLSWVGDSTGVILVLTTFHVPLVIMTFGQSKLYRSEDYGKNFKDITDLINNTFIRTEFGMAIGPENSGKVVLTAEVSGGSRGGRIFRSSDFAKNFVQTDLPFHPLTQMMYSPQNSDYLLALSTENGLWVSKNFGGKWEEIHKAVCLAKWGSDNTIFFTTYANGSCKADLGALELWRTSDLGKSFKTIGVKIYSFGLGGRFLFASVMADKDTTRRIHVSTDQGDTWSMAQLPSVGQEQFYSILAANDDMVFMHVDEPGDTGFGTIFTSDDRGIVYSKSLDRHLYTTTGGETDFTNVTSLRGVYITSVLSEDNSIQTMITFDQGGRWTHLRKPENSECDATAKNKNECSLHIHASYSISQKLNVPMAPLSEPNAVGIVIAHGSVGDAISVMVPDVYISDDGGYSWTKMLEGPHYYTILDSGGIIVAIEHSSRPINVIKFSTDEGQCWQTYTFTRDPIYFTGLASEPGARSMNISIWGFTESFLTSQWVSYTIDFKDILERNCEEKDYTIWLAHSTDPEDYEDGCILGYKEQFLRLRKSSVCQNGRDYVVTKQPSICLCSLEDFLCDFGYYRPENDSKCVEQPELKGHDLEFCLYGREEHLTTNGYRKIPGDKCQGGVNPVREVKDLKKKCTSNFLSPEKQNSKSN
Chain of LRP1 (Q07954 20-4544): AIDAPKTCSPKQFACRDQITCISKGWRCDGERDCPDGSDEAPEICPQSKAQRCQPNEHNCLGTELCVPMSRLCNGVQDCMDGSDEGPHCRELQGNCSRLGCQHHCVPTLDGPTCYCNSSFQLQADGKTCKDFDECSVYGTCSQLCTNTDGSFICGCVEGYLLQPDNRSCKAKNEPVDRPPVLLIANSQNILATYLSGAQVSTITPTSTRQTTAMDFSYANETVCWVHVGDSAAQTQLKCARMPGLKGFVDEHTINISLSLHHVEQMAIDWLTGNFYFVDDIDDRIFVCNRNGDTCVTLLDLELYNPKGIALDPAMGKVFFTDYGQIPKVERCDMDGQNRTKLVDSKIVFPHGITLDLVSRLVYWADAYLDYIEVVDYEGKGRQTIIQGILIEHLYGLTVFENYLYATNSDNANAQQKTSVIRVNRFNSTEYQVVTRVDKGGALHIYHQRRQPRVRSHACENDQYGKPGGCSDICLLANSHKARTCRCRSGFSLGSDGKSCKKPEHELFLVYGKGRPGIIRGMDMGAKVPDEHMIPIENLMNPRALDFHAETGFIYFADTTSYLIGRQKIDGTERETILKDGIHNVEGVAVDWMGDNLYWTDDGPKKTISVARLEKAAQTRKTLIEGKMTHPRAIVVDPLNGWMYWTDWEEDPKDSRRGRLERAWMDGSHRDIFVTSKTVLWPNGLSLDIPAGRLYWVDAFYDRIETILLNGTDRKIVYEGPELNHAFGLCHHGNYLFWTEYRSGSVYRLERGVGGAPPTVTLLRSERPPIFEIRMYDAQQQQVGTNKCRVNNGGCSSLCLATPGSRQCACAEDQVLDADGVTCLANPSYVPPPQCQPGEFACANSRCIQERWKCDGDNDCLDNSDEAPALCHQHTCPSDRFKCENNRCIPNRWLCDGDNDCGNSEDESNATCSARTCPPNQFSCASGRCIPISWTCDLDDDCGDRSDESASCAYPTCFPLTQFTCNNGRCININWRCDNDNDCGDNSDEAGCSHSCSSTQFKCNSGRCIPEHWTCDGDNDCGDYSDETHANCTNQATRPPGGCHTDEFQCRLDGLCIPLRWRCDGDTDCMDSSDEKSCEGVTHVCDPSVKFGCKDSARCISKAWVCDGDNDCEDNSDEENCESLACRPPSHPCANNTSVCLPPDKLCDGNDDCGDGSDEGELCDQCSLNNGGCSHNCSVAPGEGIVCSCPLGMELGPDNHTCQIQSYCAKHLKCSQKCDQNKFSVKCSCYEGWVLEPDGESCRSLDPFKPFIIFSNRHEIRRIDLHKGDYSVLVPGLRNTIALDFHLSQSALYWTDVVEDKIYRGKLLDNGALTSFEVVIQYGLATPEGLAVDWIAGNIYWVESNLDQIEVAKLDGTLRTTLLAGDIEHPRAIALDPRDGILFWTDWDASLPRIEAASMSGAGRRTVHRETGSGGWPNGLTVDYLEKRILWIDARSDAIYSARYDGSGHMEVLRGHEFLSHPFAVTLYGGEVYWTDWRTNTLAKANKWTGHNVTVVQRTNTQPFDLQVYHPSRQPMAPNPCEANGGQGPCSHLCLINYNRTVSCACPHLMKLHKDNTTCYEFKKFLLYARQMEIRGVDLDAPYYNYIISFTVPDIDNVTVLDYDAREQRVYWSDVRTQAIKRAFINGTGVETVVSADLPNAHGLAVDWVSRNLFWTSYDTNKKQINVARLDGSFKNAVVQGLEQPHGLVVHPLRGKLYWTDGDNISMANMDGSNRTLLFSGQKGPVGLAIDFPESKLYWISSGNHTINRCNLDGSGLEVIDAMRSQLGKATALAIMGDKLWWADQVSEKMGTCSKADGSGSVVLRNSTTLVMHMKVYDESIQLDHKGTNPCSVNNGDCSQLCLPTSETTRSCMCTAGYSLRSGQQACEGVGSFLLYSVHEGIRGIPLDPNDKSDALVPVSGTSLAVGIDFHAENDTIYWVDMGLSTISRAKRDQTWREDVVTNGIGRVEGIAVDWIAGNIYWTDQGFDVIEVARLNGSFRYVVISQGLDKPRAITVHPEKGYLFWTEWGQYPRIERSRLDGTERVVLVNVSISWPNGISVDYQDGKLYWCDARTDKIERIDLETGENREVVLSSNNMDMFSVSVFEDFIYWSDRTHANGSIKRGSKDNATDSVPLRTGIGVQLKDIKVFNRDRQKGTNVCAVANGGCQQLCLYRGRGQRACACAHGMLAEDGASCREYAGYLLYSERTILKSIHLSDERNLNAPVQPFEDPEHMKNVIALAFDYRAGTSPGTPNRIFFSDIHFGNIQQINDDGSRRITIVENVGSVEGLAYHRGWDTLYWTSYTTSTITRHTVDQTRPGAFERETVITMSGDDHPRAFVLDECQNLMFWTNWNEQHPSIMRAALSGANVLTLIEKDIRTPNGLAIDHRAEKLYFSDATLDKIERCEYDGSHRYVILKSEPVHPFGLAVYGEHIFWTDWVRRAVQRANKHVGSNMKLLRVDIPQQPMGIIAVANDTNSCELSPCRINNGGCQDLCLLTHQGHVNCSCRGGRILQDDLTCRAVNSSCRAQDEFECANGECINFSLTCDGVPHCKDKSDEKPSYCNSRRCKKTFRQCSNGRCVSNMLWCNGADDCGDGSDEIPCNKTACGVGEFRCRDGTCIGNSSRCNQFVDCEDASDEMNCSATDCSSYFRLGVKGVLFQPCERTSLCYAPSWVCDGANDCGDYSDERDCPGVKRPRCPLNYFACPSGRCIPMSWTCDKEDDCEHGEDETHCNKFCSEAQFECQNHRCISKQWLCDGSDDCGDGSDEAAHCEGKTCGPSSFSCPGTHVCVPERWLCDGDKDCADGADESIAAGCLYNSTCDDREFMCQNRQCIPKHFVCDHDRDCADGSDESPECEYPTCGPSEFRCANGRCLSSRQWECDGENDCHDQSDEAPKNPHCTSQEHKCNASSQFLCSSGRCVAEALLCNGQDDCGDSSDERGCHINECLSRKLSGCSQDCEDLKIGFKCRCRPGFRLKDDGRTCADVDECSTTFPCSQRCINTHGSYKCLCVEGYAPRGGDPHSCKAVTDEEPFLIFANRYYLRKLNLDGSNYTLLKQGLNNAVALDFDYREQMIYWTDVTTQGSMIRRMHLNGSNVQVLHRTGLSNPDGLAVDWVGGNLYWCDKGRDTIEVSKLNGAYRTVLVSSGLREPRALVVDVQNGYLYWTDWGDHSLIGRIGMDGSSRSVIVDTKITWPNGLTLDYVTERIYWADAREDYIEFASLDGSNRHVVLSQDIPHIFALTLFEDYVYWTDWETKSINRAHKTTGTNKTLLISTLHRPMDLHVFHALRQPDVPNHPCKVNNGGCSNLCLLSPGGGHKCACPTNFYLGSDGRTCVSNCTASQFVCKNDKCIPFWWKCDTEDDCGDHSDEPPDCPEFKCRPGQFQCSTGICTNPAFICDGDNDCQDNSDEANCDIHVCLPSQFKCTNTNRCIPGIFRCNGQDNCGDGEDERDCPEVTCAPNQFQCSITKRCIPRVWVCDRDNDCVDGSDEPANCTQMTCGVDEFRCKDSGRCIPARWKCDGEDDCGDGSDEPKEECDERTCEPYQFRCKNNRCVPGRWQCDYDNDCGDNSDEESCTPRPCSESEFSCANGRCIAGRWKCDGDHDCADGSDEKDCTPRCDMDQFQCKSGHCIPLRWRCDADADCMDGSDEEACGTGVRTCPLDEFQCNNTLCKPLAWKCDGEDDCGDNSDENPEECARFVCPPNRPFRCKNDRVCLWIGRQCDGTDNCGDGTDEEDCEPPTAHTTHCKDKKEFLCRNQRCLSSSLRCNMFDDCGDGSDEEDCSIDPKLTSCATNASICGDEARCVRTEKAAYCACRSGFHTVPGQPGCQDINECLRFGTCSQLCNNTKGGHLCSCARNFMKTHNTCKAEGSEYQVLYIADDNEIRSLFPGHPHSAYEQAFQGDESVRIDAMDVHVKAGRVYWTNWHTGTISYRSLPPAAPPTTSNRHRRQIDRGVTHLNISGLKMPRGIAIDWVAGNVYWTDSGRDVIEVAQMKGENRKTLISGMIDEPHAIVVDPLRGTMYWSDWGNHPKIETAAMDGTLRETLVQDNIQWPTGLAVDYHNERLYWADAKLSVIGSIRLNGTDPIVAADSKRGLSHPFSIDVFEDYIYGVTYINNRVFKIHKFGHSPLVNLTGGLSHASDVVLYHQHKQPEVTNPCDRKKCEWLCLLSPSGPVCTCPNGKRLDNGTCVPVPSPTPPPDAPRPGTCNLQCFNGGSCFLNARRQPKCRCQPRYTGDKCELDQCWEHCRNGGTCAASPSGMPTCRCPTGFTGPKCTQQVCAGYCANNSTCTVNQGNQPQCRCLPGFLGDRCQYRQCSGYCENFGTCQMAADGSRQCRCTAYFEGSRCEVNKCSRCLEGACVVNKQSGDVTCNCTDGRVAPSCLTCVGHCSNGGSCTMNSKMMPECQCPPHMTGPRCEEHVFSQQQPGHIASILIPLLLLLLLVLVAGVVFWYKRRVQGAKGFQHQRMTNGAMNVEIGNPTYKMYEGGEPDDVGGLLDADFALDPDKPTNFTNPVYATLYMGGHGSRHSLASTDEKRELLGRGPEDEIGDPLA

With “recombinant human APOE2 (from UniProt P02649 19-317) (natural protein)”, the Kd in assay [1] was determined as 117 nM.

On to LRP1 (from UniProt Q07954), for which the dissociation constant (Kd) in assay [2] was 0.57 nM. Regarding “recombinant human APOE4 (from UniProt P02649 19-317) (natural protein)”, the dissociation constant (Kd) in assay [1] is 114 nM.

One may read the Kd as the free concentration of one partner at which half of the binding sites on the other are occupied at equilibrium, for simple one-to-one binding.
